This data set deals with T1, OC2 (CUT-HOX) (human, UniProt O95948 330-485).
T1 sequence: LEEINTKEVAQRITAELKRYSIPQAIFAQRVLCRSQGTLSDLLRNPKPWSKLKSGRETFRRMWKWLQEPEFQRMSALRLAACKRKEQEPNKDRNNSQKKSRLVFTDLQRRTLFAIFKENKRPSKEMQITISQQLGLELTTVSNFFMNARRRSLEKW
Kind of data set: BLI.

The values below come from publication doi:10.1101/2023.06.13.544830.

B1: PEG10 promoter duplex, biotinylated (dsDNA)
DNA 1: AGATCGATTTGC
DNA 2: GCAAATCGATCT
modifications: 5'-biotin on one strand
For B1, the binding result was “binds”.
